Measured values from the supplement of paper PMC7877785.
± gives the uncertainty stated by the source.

Assay: self-splicing fitness, log relative to wild type (ln ratio); higher = more splicing; Tetrahymena group I intron in knt gene, E. coli kanamycin selection, DiMSum; sequences stand for … in CUCUCU…GGAGGGAAAAGUUAUCAGGCAUGCACCUGGUAGCUAGUCUUUAAACCAAUAGAUUGCAUCGGUUUAAAAGGCAAGACCGUCAAAUUGCGGGAAAGGGGUCAACAGCCGUUCAGUACCAAGUCUCAGGGGAAACUUUGAGAUGGCCUUGCAAAGGGUAUGGUAAUAAGCUGACGGACAUGGUCCUAACCACGCAGCCAAGUCCUAAGUCAACAGAUCUUCUGUUGAUAUGGAUGCAGUUCACAGACUAAAUGUCGGUCGGGGAAGAUGUAUUCUUCUCAUAAGAUAUAGUCGGACCUCUCCUUAAUGGGAGCUAGCGGAUGAAGUGAUGCAACACUGGAGCCGCUGGGAACUAAUUUGUAUGCGAAAGUAUAUUGAUUAGUUUUGGAGUACUCGUGGUCG
Procedure, shortened: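 Colonies from six replicate transformations of E. coli BL21(DE3) were pooled and amplicon-sequenced on an Illumina HiSeq 2500. The library placed an intron with all eight P1ex-region nucleotides randomised inside the knt kanamycin-resistance gene on pET-22b(+), and cells grew overnight at 37°C or 30°C on LB agar with or without 25 μg/mL kanamycin (plus 100 μg/mL carbenicillin, 50 μM IPTG, 0.2% rhamnose). Fitness is the DiMSum error-weighted combination of wild-type-normalised replicate fold changes, kanamycin versus none.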

Sequence | self-splicing fitness (ln) (30 °C) | self-splicing fitness (ln) (37 °C)
UGUCAGCAAUAUUACGGUUG | -0.893 ± 0.049 | 0.317 ± 0.072
ACCCAGCAAUAUUACGCAAU | -0.941 ± 0.053 | 0.344 ± 0.064
GCCCAGCAAUAUUACGUGUA | -0.725 ± 0.046 | -0.0902 ± 0.058
GUGAAGCAAUAUUACGACAA | 0.0822 ± 0.12 | 0.396 ± 0.16
UGAAAGCAAUAUUACGUUCA | -2.03 ± 0.13 | -1.48 ± 0.14
GCUAAGCAAUAUUACGCGUG | -1.88 ± 0.092 | -1.44 ± 0.12
UACCAGCAAUAUUACGCGCG | 0.11 ± 0.068 | 0.573 ± 0.09
CAAUAGCAAUAUUACGCGAU | -3.99 ± 0.23 | -2.92 ± 0.29
AGGAAGCAAUAUUACGAAUG | -4.53 ± 0.46 | -2.8 ± 0.28
GAGCAGCAAUAUUACGAUUA | -2.26 ± 0.15 | -1.13 ± 0.12
AUGGAGCAAUAUUACGUUAU | -2.96 ± 0.13 | -1.77 ± 0.12
AAACAGCAAUAUUACGCCGG | -2.36 ± 0.12 | -1.67 ± 0.12
AGACAGCAAUAUUACGACGG | -2.19 ± 0.14 | -1.86 ± 0.13
GACUAGCAAUAUUACGUACA | -1.02 ± 0.14 | -0.0348 ± 0.15
UCUAAGCAAUAUUACGUCAA | -2.57 ± 0.24 | -1.77 ± 0.27
GGGCAGCAAUAUUACGGUCG | -0.993 ± 0.076 | -0.0756 ± 0.12
ACCUAGCAAUAUUACGACUA | -2.72 ± 0.21 | -1.78 ± 0.23
AUACAGCAAUAUUACGGCAU | -0.388 ± 0.083 | 0.525 ± 0.099
UAAGAGCAAUAUUACGGUAA | -2.55 ± 0.21 | -3.19 ± 0.28
UCAGAGCAAUAUUACGUCUG | -2.88 ± 0.12 | -2.35 ± 0.14
GAAAAGCAAUAUUACGCCAA | -2.24 ± 0.12 | -1.36 ± 0.12
UUGCAGCAAUAUUACGGGGA | -1.37 ± 0.13 | -0.636 ± 0.12
AGAAAGCAAUAUUACGUGGA | -2.47 ± 0.12 | -2.28 ± 0.13
UCAUAGCAAUAUUACGGCUU |  | -1.48 ± 0.26

Sequence | self-splicing fitness (ln) (30 °C) | self-splicing fitness (ln) (37 °C)
UACCAGCAAUAUUACGCGGG | -3.61 ± 0.21 | -1.31 ± 0.17
GCGCAGCAAUAUUACGCCAG | -2.22 ± 0.26 | -2.28 ± 0.47
AAUAAGCAAUAUUACGAUAG | -3.78 ± 0.32 | -2.13 ± 0.24
AGAUAGCAAUAUUACGUCUG | -0.398 ± 0.062 | -0.143 ± 0.076
GGGGAGCAAUAUUACGCGUU | -2.88 ± 0.13 | -1.04 ± 0.14
CGAAAGCAAUAUUACGCAAG | -1.44 ± 0.097 | -0.503 ± 0.12
CCGAAGCAAUAUUACGUCAA | -3.82 ± 0.38 | -2.35 ± 0.33
UAGGAGCAAUAUUACGGGUA | -1.45 ± 0.17 | -2.13 ± 0.21
UGUCAGCAAUAUUACGUCGA | -0.404 ± 0.073 | -0.0273 ± 0.085
GGCAAGCAAUAUUACGCGUG | -1.95 ± 0.088 | -2.11 ± 0.095
UGGCAGCAAUAUUACGCGCC |  | -2.9 ± 0.19
CUAAAGCAAUAUUACGACCA | -2.78 ± 0.23 | 0.487 ± 0.23
UCUCAGCAAUAUUACGCUAA | -3.89 ± 0.33 | -2.23 ± 0.25
AAAGAGCAAUAUUACGGAUG | -4.57 ± 0.42 | -2.06 ± 0.23
CACGAGCAAUAUUACGUACC | -2.54 ± 0.5 | 
UAAGAGCAAUAUUACGUUAC |  | -2.7 ± 0.34
AUCCAGCAAUAUUACGAGGA | -2.21 ± 0.17 | -1.49 ± 0.17
AGACAGCAAUAUUACGUUAC | -3.81 ± 0.19 | -1.34 ± 0.17
AGUCAGCAAUAUUACGGCAC | -0.122 ± 0.093 | -0.255 ± 0.14
AAACAGCAAUAUUACGUUAC | -3.19 ± 0.16 | -2.56 ± 0.26
AUGUAGCAAUAUUACGCGCG | -0.882 ± 0.093 | -0.464 ± 0.099
AUGCAGCAAUAUUACGUCGC | -3.69 ± 0.31 | -2.57 ± 0.32
UCGAAGCAAUAUUACGGCGG | -1.14 ± 0.11 | -0.364 ± 0.17
CAGUAGCAAUAUUACGCUAC | -4.2 ± 0.3 | -2.7 ± 0.23
